The values that follow come from paper PMC7409301, “Natural Killer Cell Activation Receptor NKp30 Oligomerization Depends on Its N-Glycosylation” (Cancers, 2020).

What is called Kd is the concentration at which binding is half-saturated. As a reminder, the stoichiometry N is the number of molecules, sites or subunits per partner or assembly.

Series [1] addresses NKp30_Stalk, uniform simple N-glycans (expressed in HEK293S GnTI^−) (human) (UniProt O14931). The experiment in a line: SPR; NKp30_Stalk monomer. The following applies: domain or fragment.
For series [2], the target named is NKp30_Stalk, wild-type N-glycosylation (expressed in HEK293T) (human) (UniProt O14931). The experiment in a line: SPR; NKp30_Stalk monomer. The following applies: domain or fragment. In general terms: In SPR one partner is held on a chip, and binding of the other changes the refractive index at the surface.
In series [3] the target is NKp30_Stalk, uniform simple N-glycans (expressed in HEK293S GnTI^−) (human) (UniProt O14931). The experiment in a line: SPR; NKp30_Stalk oligomer. The following applies: domain or fragment.
Series [4] concerns the target NKp30_Stalk, wild-type N-glycosylation (expressed in HEK293T) (human) (UniProt O14931). The experiment in a line: SPR; NKp30_Stalk oligomer. As to conditions: domain or fragment.
Series [5] concerns the target NKp30_Stalk, uniform simple N-glycans (expressed in HEK293S GnTI^−) (human) (UniProt O14931). The experiment in a line: SPR; NKp30_Stalk monomer. The following applies: domain or fragment. The source holds these as a separate data set.
The target in series [6] is NKp30_Stalk, deglycosylated with endoglycosidase Endo F1 (human) (UniProt O14931). The experiment in a line: SPR. The following applies: domain or fragment.
The next series deals with B7-H6 (Homo sapiens) (UniProt Q68D85). The following applies: cited from earlier work.
The target in series [7] is NKp30_LBD (Ligand Binding Domain), glycosylation state not told in the text for the experiment (human) (UniProt O14931). The experiment in a line: AUC; NKp30_LBD at high concentration, 20 mg/mL, 50,000 rpm, 3 mm centerpiece, interference optics, nonideal c(s) model.
The target of series [8] is B7-H6 C212S extracellular portion, uniform simple N-glycans (expressed in HEK293S GnTI^−) (UniProt Q68D85). The experiment in a line: SPR. As to conditions: domain or fragment.
The target in series [9] is B7-H6 C212S extracellular portion, glycosylation state not told in the text for the experiment (UniProt Q68D85). The experiment in a line: SPR; as a7 but analyte is the oligomeric fraction of NKp30_Stalk; increase in affinity put down to the avidity of the oligomers.
The target is the same in series [10]. The experiment in a line: SPR; Biacore T200; biotinylated B7-H6 on streptavidin sensor; analyte NKp30_LBD, deglycosylated NKp30_Stalk or the monomeric fraction of NKp30_Stalk, 1 nM to 16.3 μM, single cycle kinetics; 10 mM HEPES pH 7.5, 150 mM NaCl, 1 mg/mL dextran, 0.05% Tween-20; steady-state responses fitted with AB hetero-association model.
Series [11] addresses B7-H6 C212S extracellular portion, wild-type N-glycosylation (expressed in HEK293T) (UniProt Q68D85). The experiment in a line: ITC; NKp30_Stalk oligomer. As to conditions: domain or fragment. In general terms: ITC needs no label: the signal is the heat of the interaction.
The target is the same in series [12]. The experiment in a line: ITC; NKp30_Stalk monomer. As to conditions: domain or fragment.
The target in series [13] is B7-H6 C212S extracellular portion, uniform simple N-glycans (expressed in HEK293S GnTI^−) (UniProt Q68D85). The experiment in a line: SPR; NKp30_Stalk monomer. As to conditions: domain or fragment.
For series [14] the target is unchanged. The experiment in a line: SPR; NKp30_Stalk oligomer. The following applies: domain or fragment.
The target in series [15] is B7-H6 C212S extracellular portion, wild-type N-glycosylation (expressed in HEK293T) (UniProt Q68D85). The experiment in a line: ITC; NKp30_Stalk monomer. As to conditions: domain or fragment. The source holds these as a separate data set.
In series [16] the target is NKp30_Stalk, wild-type N-glycosylation (expressed in HEK293T) (human) (UniProt O14931). The experiment in a line: AUC; sedimentation velocity of glycosylated and deglycosylated NKp30_Stalk oligomers, 20 μM, 20 °C, 10 mM HEPES pH 7.5, 150 mM NaCl, 10 mM NaN3, 36,000 or 48,000 rpm.
Series [17] concerns the target NKp30_Stalk, glycosylated, type of N-glycans not told in the text for the experiment (human) (UniProt O14931). The experiment in a line: AUC; sedimentation velocity of the monomeric fraction of glycosylated NKp30_Stalk, of B7-H6 and of their equimolar mixture, 20 μM, 20 °C, HEPES buffer.
Series [18] has as its target NKp30_Stalk, wild-type N-glycosylation (expressed in HEK293T) (human) (UniProt O14931). The experiment in a line: ITC; as a9 but the oligomeric fraction of NKp30_Stalk in the cell.
The target is the same in series [19]. The experiment in a line: AUC; sedimentation velocity of the oligomeric fraction of NKp30_Stalk (HEK293T) with ATTO488-labelled B7-H6, read at 280 nm (total) and 480 nm (B7-H6 only), 20 °C.
Series [20] is described as follows: sedimentation velocity AUC. The following applies: glycan changed form; control: NKp30_Stalk from HEK293S GnTI− (uniform glycans).
The target of series [21] is T1, B7-H6 C212S extracellular portion, uniform simple N-glycans (expressed in HEK293S GnTI^−) (UniProt Q68D85 25-245, C212S, uniform Asn-GlcNAc2Man5 N-glycans; biotinylated with EZ-Link NHS-Biotin for SPR; labelled with ATTO 488-NHS ester for the two-wavelength sedimentation analysis).
T1 sequence: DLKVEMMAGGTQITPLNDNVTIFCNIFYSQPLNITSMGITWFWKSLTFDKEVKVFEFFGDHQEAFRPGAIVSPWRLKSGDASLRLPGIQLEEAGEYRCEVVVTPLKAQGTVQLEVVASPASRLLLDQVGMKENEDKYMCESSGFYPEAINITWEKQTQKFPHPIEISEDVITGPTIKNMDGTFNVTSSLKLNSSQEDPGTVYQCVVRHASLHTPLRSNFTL
The experiment in a line: SPR.

Series [22] deals with T2, B7-H6 C212S extracellular portion, wild-type N-glycosylation (expressed in HEK293T) (UniProt Q68D85 25-245, C212S, complex wild-type N-glycans (HEK293T); biotinylated with EZ-Link NHS-Biotin for SPR).
T2 sequence: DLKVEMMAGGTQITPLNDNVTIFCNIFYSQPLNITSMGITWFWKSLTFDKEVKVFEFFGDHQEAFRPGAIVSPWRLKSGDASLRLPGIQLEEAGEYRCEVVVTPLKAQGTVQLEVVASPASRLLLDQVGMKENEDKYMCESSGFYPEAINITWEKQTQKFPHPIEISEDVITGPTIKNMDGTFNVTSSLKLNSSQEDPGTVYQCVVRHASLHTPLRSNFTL
The experiment in a line: ITC.

“And” between values parts separate entries of the source, which are not always exact repeats. Equal entries are not always repeated.

“B7-H6 C212S extracellular portion, deglycosylated with endoglycosidase Endo F1 (from UniProt Q68D85 25-245)” gave a Kd in series [1] of 380 nM.

As to “B7-H6 C212S extracellular portion, uniform simple N-glycans (expressed in HEK293S GnTI^−) (from UniProt Q68D85 25-245)”, the Kd worked out at 350 nM in [1]; 380 nM in [2]; 70 nM in series [3]; 90 nM in series [4]; 370 nM in [5]; 350 nM in [6].

The molecule “B7-H6 C212S extracellular portion, wild-type N-glycosylation (expressed in HEK293T) (from UniProt Q68D85 25-245)” displayed a dissociation constant Kd in [1] of 370 nM.

Turning to NKp30 (from UniProt O14931), the Kd in the series with B7-H6 (Homo sapiens) is 1000 nM.

“NKp30_LBD (Ligand Binding Domain), glycosylation state not told in the text for the experiment (from UniProt O14931 19-130) (domain or fragment)”: in series [7], the stoichiometry N was determined as 2.

With “NKp30_Stalk, deglycosylated with endoglycosidase Endo F1 (from UniProt O14931 19-135)”, the Kd in series [8] was determined as 350 nM.

In [9], “NKp30_Stalk, glycosylated, type of N-glycans not told in the text for the experiment (from UniProt O14931 19-135) (domain or fragment)” displayed a fold stronger binding than NKp30 LBD of 10 fold and a fold stronger binding than the NKp30 Stalk monomeric fraction of 4 fold. Further, the fold higher affinity than NKp30 LBD in series [10] is 2 fold.

As for “NKp30_Stalk, uniform simple N-glycans (expressed in HEK293S GnTI^−) (from UniProt O14931 19-135)”, the Kd in series [11] is 1000 nM; in series [12], 960 nM; in series [13], 370 nM; in series [14] it was 70 nM; in series [15] it was 970 nM.

For the molecule “NKp30_Stalk, wild-type N-glycosylation (expressed in HEK293T) (from UniProt O14931 19-135)”, the Kd came to 830 nM in series [11], 380 nM in [13], 90 nM in series [14] and 590 nM in series [15].

For “NKp30_Stalk, wild-type N-glycosylation (expressed in HEK293T) (from UniProt O14931 19-135) (domain or fragment)”, in series [16], the stoichiometry N is 8 units and 16 units.

B1: B7-H6 C212S extracellular portion, glycosylation state not told in the text for the experiment (domain or fragment)
chain: DLKVEMMAGGTQITPLNDNVTIFCNIFYSQPLNITSMGITWFWKSLTFDKEVKVFEFFGDHQEAFRPGAIVSPWRLKSGDASLRLPGIQLEEAGEYRCEVVVTPLKAQGTVQLEVVASPASRLLLDQVGMKENEDKYMCESSGFYPEAINITWEKQTQKFPHPIEISEDVITGPTIKNMDGTFNVTSSLKLNSSQEDPGTVYQCVVRHASLHTPLRSNFTL
modifications: glycosylation state marked only in the figures; biotinylated with EZ-Link NHS-Biotin for SPR
Regarding B1, the stoichiometry N in series [17] is 1. This molecule had a percent of NKp30 Stalk T oligomers accessible in series [18] of 60 to 70%.

B2: B7-H6 C212S extracellular portion, uniform simple N-glycans (expressed in HEK293S GnTI^−) (domain or fragment)
chain: DLKVEMMAGGTQITPLNDNVTIFCNIFYSQPLNITSMGITWFWKSLTFDKEVKVFEFFGDHQEAFRPGAIVSPWRLKSGDASLRLPGIQLEEAGEYRCEVVVTPLKAQGTVQLEVVASPASRLLLDQVGMKENEDKYMCESSGFYPEAINITWEKQTQKFPHPIEISEDVITGPTIKNMDGTFNVTSSLKLNSSQEDPGTVYQCVVRHASLHTPLRSNFTL
modifications: uniform Asn-GlcNAc2Man5 N-glycans; biotinylated with EZ-Link NHS-Biotin for SPR; labelled with ATTO 488-NHS ester for the two-wavelength sedimentation analysis
Consider B2, for which the percent of NKp30 binding sites occupied by B7-H6 in the oligomers in series [19] is 60%. Also, in series [19] (scale: B7-H6 molecules per eight NKp30 molecules), the stoichiometry N came out at 5.

B3: NKp30: HEK293T wild-type glycosylation (protein)
parent chain: MAWMLLLILIMVHPGSCALWVSQPPEIRTLEGSSAFLPCSFNASQGRLAIGSVTWFRDEVVPGKEVRNGTPEFRGRLAPLASSRFLHDHQAELHIRDVRGHDASIYVCRVEVLGLGVGTGNGTRLVVEKEHPQLGAGTVLLLRAGFYAVSFLSVAVGSTVYYQGKCLTWKGPRRQLPAVVPAPLPPPCGSSAHLLPPVPGG
For B3, the oligomerisation result in series [20] is “changes, one dominant species of ca 8 units and with secondary species of ca 16 units”.

B4: NKp30_LBD (Ligand Binding Domain), uniform simple N-glycans (expressed in HEK293S GnTI^−) (domain or fragment)
chain: LWVSQPPEIRTLEGSSAFLPCSFNASQGRLAIGSVTWFRDEVVPGKEVRNGTPEFRGRLAPLASSRFLHDHQAELHIRDVRGHDASIYVCRVEVLGLGVGTGNGTRLVVEKE
modifications: uniform Asn-GlcNAc2Man5 N-glycans; GlcNAc modelled at Asn42 in the crystal structure
B4: the figures for the Kd in series [21] and in series [22] were 1010 nM and 890 nM, respectively.

B5: NKp30_LBD (Ligand Binding Domain), wild-type N-glycosylation (expressed in HEK293T) (domain or fragment)
chain: LWVSQPPEIRTLEGSSAFLPCSFNASQGRLAIGSVTWFRDEVVPGKEVRNGTPEFRGRLAPLASSRFLHDHQAELHIRDVRGHDASIYVCRVEVLGLGVGTGNGTRLVVEKE
modifications: complex wild-type N-glycans (HEK293T)
B5: the Kd in series [21] was found to be 910 nM; in [22] it was 770 nM.

B6: NKp30_LBD (Ligand Binding Domain), deglycosylated with endoglycosidase Endo F1 (domain or fragment)
chain: LWVSQPPEIRTLEGSSAFLPCSFNASQGRLAIGSVTWFRDEVVPGKEVRNGTPEFRGRLAPLASSRFLHDHQAELHIRDVRGHDASIYVCRVEVLGLGVGTGNGTRLVVEKE
modifications: a single GlcNAc unit left at each N-glycosylation site after Endo F1
For the molecule B6, the results for the Kd in series [21] and in [22] were 690 nM and 550 nM, respectively.
